The labels stand for the following.
B1: LB309 (bispecific antibody)
chain 1: not shown
chain 2: QVQLVQSGAEVKKPGSSVKVSCKASGYAFSNYLIEWVKQAPGQGLEWIGLINPGSGGTNYNEKFKGKATITADKSTSTAYMELSSLRSEDTAVYYCARVYYGNSFAYWGQGTLVTVSS
chain 3: DIVMTQSPDSLAVSLGERATISCKSSQSLLNSGNQKNYLTWYQQKPGQPPKLLIYWASTRESGVPDRFSGSGSGTDFTLTISSLQAEDVAVYYCQNDYFYPFTFGQGTKLEIK
chain 4: not shown
B2: LB314 (bispecific antibody)
chain 1: B1 chain 3
chain 2: B1 chain 2
chain 3: not shown
chain 4: B1 chain 2
chain 5: B1 chain 3
chain 6: not shown
B3: LB312 (bispecific antibody)
chain 1: not shown
chain 2: B1 chain 3
chain 3: B1 chain 2
chain 4: EIVLTQSPATLSLSPGERATLSCRASKGVSTSGYSYLHWYQQKPGQAPRLLIYLASYLESGVPARFSGSGSGTDFTLTISSLEPEDFAVYYCQHSRDLPLTFGGGTKVEIKRTVAAPSVFIFPPSDEQLKSGTASVVCLLNNFYPREAKVQWKVDNALQSGNSQESVTEQDSKDSTYSLSSTLTLSKADYEKHKVYACEVTHQGLSSPVTKSFNRGEC
B4: LB313 (bispecific antibody)
chain 1: not shown
chain 2: B3 chain 4
chain 3: B1 chain 2
chain 4: B1 chain 3
B5: LB308 (bispecific antibody)
chain 1: not shown
chain 2: B1 chain 2
chain 3: B1 chain 3
chain 4: B3 chain 4

For one test, the target named is T1, human PD-1 (human, UniProt Q15116 25-170).
T1 construct: extracellular domain; also called PD-1 antigen
T1 sequence (Q15116 25-170): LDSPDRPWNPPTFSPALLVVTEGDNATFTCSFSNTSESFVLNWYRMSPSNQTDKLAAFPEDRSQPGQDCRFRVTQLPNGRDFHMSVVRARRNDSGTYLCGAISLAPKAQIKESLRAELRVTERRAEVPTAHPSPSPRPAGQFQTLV
Description: ELISA, PD-1 coated. (In an ELISA, binding on a coated surface is turned into a signal by an enzyme label.)
The EC50 is the concentration giving half of the maximal effect. The low end stands for an effect from little substance, the high end for a need for much substance. For B1, the EC50 turned out to be 0.16 nM.

The molecule B2 yielded an EC50 of 0.083 nM.

Molecule B3 yielded an EC50 of 0.042 nM.

B4 returned a concentration giving a half-maximal response (EC50) of 0.048 nM.

For the molecule B5, the EC50 was found to be 0.25 nM.

The target of the next test is T1, human PD-1. Nature of the test: blocking ELISA: PD-1 coated, biotin-labelled PD-L1.
What is called IC50 is the concentration needed to halve the response being measured. Higher therefore signals weaker potency. On to B1, for which the half-maximal inhibitory concentration (IC50) came to 0.8 nM.

In turn, B5 had an IC50 of 1.93 nM.

In the next test the target is T1, human PD-1. Nature of the test: ELISA; EC50 ratio to the control monoclonal antibody.
Turning to B1, the EC50 fold change was 1.33.

Turning to B2, the EC50 fold change was 5.2.

As to B3, the EC50 fold change was 3.

As for B4, the EC50 fold change came out at 3.4.

Take B5: the EC50 fold change amounted to 0.93.

The next test has as its target T1, human PD-1. Nature of the test: blocking ELISA; IC50 ratio to the control monoclonal antibody.
B1: the IC50 fold change is 2.42.

On to B5, for which the IC50 fold change turned out to be 1.8.

The values above are taken from patent US20210230272A1 (L AND L BIOPHARMA, published 2021).
